# Test results reported in patent US20240390531A1 (IMAGINAB, published 2024).
# Substitutions are numbered along the chain they refer to.
# B1: IAB16C3-21 (other)
# chain: DIVMTQSPDSLAVSLGERATINCKSSQSLLYSRNQKNYLAWYQQKPGQPPKLLIFWASTRESGVPDRFSGSGFGTDFTLTISSLQAEDVAVYYCQQYFSYPLTFGQGTKVEIKGGGSGGGGQVQLVQSGAEVKKPGASVKVSCKTSRYTFTEYTIHWVRQAPGQRLEWIGGINPNNGIPNYNQKFKGRVTITVDTSASTAYMELSSLRSEDTAVYYCARRRIAYGYDEGHAMDYWGQGTLVTVSSGGCPPCPPC
# B2: IAB16M1-12 (other)
# chain: DIVMTQSPDSLAVSLGERATINCKSSQSLLYSRNQKNYLAWYQQKPGQPPKLLIFWASTRESGVPDRFSGSGFGTDFTLTISSLQAEDVAVYYCQQYFSYPLTFGQGTKVEIKGSTSGGGSGGGSGGGGSSQVQLVQSGAEVKKPGASVKVSCKTSRYTFTEYTIHWVRQAPGQRLEWIGGINPNNGIPNYNQKFKGRVTITVDTSASTAYMELSSLRSEDTAVYYCARRRIAYGYDEGHAMDYWGQGTLVTVSSEPKSSDKTHTCPPCPPCGGGSSGGGSGGQPREPQVYTLPPSREEMTKNQVSLTCLVKGFYPSDIAVEWESNGQPENNYKTTPPVLDSDGSFFLYSKLTVDKSRWQQGNVFSCSVMHEALHNHYTQKSLSLSPG
# notes: also called Sibrotuzumab minibody; the control
# B3: IAB16M1-49 (other)
# chain: DIQMTQSPSSLSASVGDRVTITCKASQDVGIAVAWYQQKPGKAPKLLIYWASTRHTGVPSRFSGSGSGTDFTFTISSLQPEDIATYYCQQYSRYPYTFGQGTKLEIKGSTSGGGSGGGSGGGGSSDVQLVESGGGLVKPGGSLRLSCTVSGFTFSSYTMSWVRQAPGKGLEWVSTISSGGSYTYYADSVKGRFTISRDNAKNSLYLQMNSLRAEDTAVYYCTRDQVGYAMDYWGQGTLVTVSSEPKSSDKTHTCPPCPPCGGGSSGGGSGGQPREPQVYTLPPSREEMTKNQVSLTCLVKGFYPSDIAVEWESNGQPENNYKTTPPVLDSDGSFFLYSKLTVDKSRWQQGNVFSCSVMHEALHNHYTQKSLSLSPG
# B4: IAB16M2-55 (other)
# chain: QVQLVQSGAEVKKPGASVKVSCKASGYTFTSYVMHWVRQAPGQGLEWMGYINPHNDGTKYAQKFQGRVTMTRDTSTSTVYMELSSLRSEDTAVYYCARWGIYYGYGAWFAYWGQGTLVTVSSGSTSGGGSGGGSGGGGSSDIQMTQSPSSLSASVGDRVTITCKASQNVGTYVAWFQQKPGKAPKSLIYSASNRYSGVPSRFSGSGSGTDFTLTISSLQPEDFATYYCQQYNTYPYTFGQGTKLEIKEPKSSDKTHTCPPCPPCGGGSSGGGSGGQPREPQVYTLPPSREEMTKNQVSLTCLVKGFYPSDIAVEWESNGQPENNYKTTPPVLDSDGSFFLYSKLTVDKSRWQQGNVFSCSVMHEALHNHYTQKSLSLSPG
# B5: IAB16C1-20 (other)
# chain: DIVMTQSPDSLAVSLGERATINCKSSQSLLYSRNQKNYLAWYQQKPGQPPKLLIFWASTRESGVPDRFSGSGFGTDFTLTISSLQAEDVAVYYCQQYFSYPLTFGQGTKVEIKSGGGGQVQLVQSGAEVKKPGASVKVSCKTSRYTFTEYTIHWVRQAPGQRLEWIGGINPNNGIPNYNQKFKGRVTITVDTSASTAYMELSSLRSEDTAVYYCARRRIAYGYDEGHAMDYWGQGTLVTVSSGGCPPCPPC
# B6: IAB16C1-38 (other)
# chain: B5 chain with F73S, V89F, F98Y, T142A, R144G
# B7: IAB16M2-29 (other)
# chain: QVQLVQSGAEVKKPGASVKVSCKASGYTFTEYTIHWVRQAPGQRLEWIGGINPNNGIPNYNQKFKGRVTITVDTSASTAYMELSSLRSEDTAVYYCARRRIAYGYDEGHAMDYWGQGTLVTVSSGSTSGGGSGGGSGGGGSSDIVMTQSPDSLAVSLGERATINCKSSQSLLYSRNQKNYLAWYQQKPGQPPKLLIFWASTRESGVPDRFSGSGSGTDFTLTISSLQAEDFAVYYCQQYFSYPLTFGQGTKVEIKEPKSSDKTHTCPPCPPCGGGSSGGGSGGQPREPQVYTLPPSREEMTKNQVSLTCLVKGFYPSDIAVEWESNGQPENNYKTTPPVLDSDGSFFLYSKLTVDKSRWQQGNVFSCSVMHEALHNHYTQKSLSLSPG
# B8: IAB16M1-42 (other)
# chain: DIQMTQSPSSLSASVGDRVTITCKASQDVSTAVAWYQQKPGKAPKLLIYSASYRYTGVPSRFSGSGSGTDFTFTISSLQPEDIATYYCQQHYSNPRTFGGGTKVEIKGSTSGGGSGGGSGGGGSSQVQLQESGPGLVKPSETLSLTCTVSGFSLTNYDINWIRQPPGKGLEWIGLIWTGGGTNYNPSLKSRVTISKDTSKNQFSLKLSSVTAADTAVYYCVRGGPLVWYALDYWGQGTLVTVSSEPKSSDKTHTCPPCPPCGGGSSGGGSGGQPREPQVYTLPPSREEMTKNQVSLTCLVKGFYPSDIAVEWESNGQPENNYKTTPPVLDSDGSFFLYSKLTVDKSRWQQGNVFSCSVMHEALHNHYTQKSLSLSPG
# B9: IAB16M2-50 (other)
# chain: DVQLVESGGGLVKPGGSLRLSCTVSGFTFSSYTMSWVRQAPGKGLEWVSTISSGGSYTYYADSVKGRFTISRDNAKNSLYLQMNSLRAEDTAVYYCTRDQVGYAMDYWGQGTLVTVSSGSTSGGGSGGGSGGGGSSDIQMTQSPSSLSASVGDRVTITCKASQDVGIAVAWYQQKPGKAPKLLIYWASTRHTGVPSRFSGSGSGTDFTFTISSLQPEDIATYYCQQYSRYPYTFGQGTKLEIKEPKSSDKTHTCPPCPPCGGGSSGGGSGGQPREPQVYTLPPSREEMTKNQVSLTCLVKGFYPSDIAVEWESNGQPENNYKTTPPVLDSDGSFFLYSKLTVDKSRWQQGNVFSCSVMHEALHNHYTQKSLSLSPG
# B10: IAB16M2-9 (other)
# chain: EVQLLESGGGLVQPGGSLRLSCAASGFTFSSYAMSWVRQAPGKGLEWVSAIIGSGASTYYADSVKGRFTISRDNSKNTLYLQMNSLRAEDTAVYYCAKGWFGGFNYWGQGTLVTVSSGSTSGGGSGGGSGGGGSSEIVLTQSPGTLSLSPGERATLSCRASQSVTSSYLAWYQQKPGQAPRLLINVGSRRATGIPDRFSGSGSGTDFTLTISRLEPEDFAVYYCQQGIMLPPTFGQGTKVEIKEPKSSDKTHTCPPCPPCGGGSSGGGSGGQPREPQVYTLPPSREEMTKNQVSLTCLVKGFYPSDIAVEWESNGQPENNYKTTPPVLDSDGSFFLYSKLTVDKSRWQQGNVFSCSVMHEALHNHYTQKSLSLSPG
# B11: IAB16M1-54 (other)
# chain: DIQMTQSPSSLSASVGDRVTITCKASQNVGTYVAWFQQKPGKAPKSLIYSASNRYSGVPSRFSGSGSGTDFTLTISSLQPEDFATYYCQQYNTYPYTFGQGTKLEIKGSTSGGGSGGGSGGGGSSQVQLVQSGAEVKKPGASVKVSCKASGYTFTSYVMHWVRQAPGQGLEWMGYINPHNDGTKYAQKFQGRVTMTRDTSTSTVYMELSSLRSEDTAVYYCARWGIYYGYGAWFAYWGQGTLVTVSSEPKSSDKTHTCPPCPPCGGGSSGGGSGGQPREPQVYTLPPSREEMTKNQVSLTCLVKGFYPSDIAVEWESNGQPENNYKTTPPVLDSDGSFFLYSKLTVDKSRWQQGNVFSCSVMHEALHNHYTQKSLSLSPG
# B12: 9A2 (other)
# chain 1: EVQLQQSGPELVKPGASVKMSCKASGYTFTSYVMHWLKQKPGQGLEWIGYINPHNDGTKYNEKFKGKATLTSDKSSSTAYMELSSLTSEDSAVYYCARWGIYYGYGAWFAYWGQGTLVTVSA
# chain 2: DIVMTQSQKFMSTSVGDRVSVTCKASQNVGTYVAWYQQKPGQSPKALIYSASNRYSGVPDRFTGSGSGTDFTLTISNVQSEDLAEYFCQQYNTYPYTFGGGTKLEIK
# notes: also called murine 9A2 construct
# Key:
# [1] = molecular target: T1, purified human FAP antigen (human, UniProt Q12884 26-760, limits assumed); assay: ELISA, plate coated with purified human FAP antigen (FIG. 56D-56E)
# Description: (§1) Binding kinetics of the novel antigen binding constructs to a purified human FAP antigen was assessed using ELISA. For this assay, a 96 well ELISA plate was coated with the human-FAP antigen diluted to a concentration of 2 mg/mL in coating buffer (0.05M sodium carbonate-bicarbonate buffer, pH 9.6). 100 μl of this coating solution was added to each well in the plate and incubate at 4° C. overnight. The plate was washed 3 times with 300 μl per well of washing buffer (PBS with 0.05% Tween-20). After the last wash, the plate was blocked by adding to each well 200 μl of blocking buffer (PBS with 1% BSA) warmed to room temperature. The plate was then incubated at room temperature for 1 hour under gentle agitation. After blocking, the plate was washed 3 times with 300 μl per well of washing buffer. Dilution samples for each minibody were created by making 2.5× dilutions from a starting sample at 100 ng/mL, or 250 ng/mL, or 1000 ng/mL or 3000 ng/mL in 100 μL sample buffer (PBS with 1% BSA). The dilution samples were transferred to the assay plate and incubated at room temperature for 1 hour under gentle agitation. The plate was then washed 3 times with 300 μl per well of washing buffer.
# (§2) Detection was performed by adding 100 μl of HRP labeled detection secondary antibody at an appropriate dilution and incubating the plate at room temperature for 1 hour under gentle agitation. The plate was then washed 3 times with 300 μl per well of washing buffer. For color development, 100 μl of TMB substrate regent, pre-warmed to room temperature, was added to the plate and incubated in the dark at room temperature for 15 min. The reaction was then stopped by adding 100 μl of 650 nm stop solution to the plate and mixed for 1 min at room temperature under gentle agitation. The plate is recorded by reading OD at 650 nm in a plate reader within 20 min after terminating the reaction.
# FAP = FAP (UniProt Q12884 26-760, limits assumed); assay: binding kinetics, method not stated (FIG. 42A)
# [2] = molecular target: T1, purified human FAP antigen; assay: ELISA, plate coated with purified human FAP antigen (FIG. 56A-56C)
# Description: as §1, §2
# human FAP on cells = molecular target: T2, human FAP on cells (human, UniProt Q12884 1-760); assay: flow cytometry on U87-MG glioblastoma cells (FIG. 58B)
# T2 construct: whole, on cells; The cell line is named under assay; also called HT1080 human FAP cells; HT1080-hFAP cells
# Description: As disclosed herein, the binding of constructs to cellular targets was assessed using flow cytometry. Stock of 2.5× serial dilution of minibodies were created starting from a concentration of 100 nM in […] FACS buffer (PBS 2% FBS). Cells were added to a Corning V-bottom polypropylene cell culture plate at 200,000 cells/well. The cells were centrifuged at 100 rpm for 3 minutes and the supernatant discarded. The minibody dilution series were transferred to the plate containing cell pellets and incubated for 1 hr at 4° C. The plate was then washed 3 times with FACS buffer at 200 µl/well, discarding supernatant after each wash by centrifugation at 1000 rpm. 50 µl/well of detection antibody R&D AlexaFluor-647 Goat anti Human (H+L) was added at a 1:100 dilution in FACS buffer and incubated at 4° C. 1 hr. The plate was washed 3 times with FACS buffer at 200 µl/well, discarding supernatant after each wash by centrifuging at 1000 rpm. Cells were then fixed by adding 100 µl of 1% paraformaldehyde in PBS and incubating at room temperature for 15 minutes. 100 µl of PBS were added to each well and the plate was analyzed by flow cytometry using the allophycocyanin fluorescence setting.
# [3] = molecular target: T1, purified human FAP antigen; assay: ELISA, plate coated with purified human FAP antigen (FIG. 91F)
# Description: as §1
# [4] = molecular target: T1, purified human FAP antigen; assay: ELISA, plate coated with purified human FAP antigen (FIG. 91A)
# Description: as §1
# [5] = molecular target: T1, purified human FAP antigen; assay: ELISA, plate coated with purified human FAP antigen (FIG. 91B)
# Description: as §1
binder,measurement,setting,value
B1,Kd,[1],~1 nM
B2,Kd,FAP,3.34 nM
same,koff,FAP,0.00257 s⁻¹
same,kon,FAP,769000 M⁻¹ s⁻¹
same,Kd,[2],~0.1 nM
same,Kd,human FAP on cells,~0.1 nM
B3,Kd,[3],~1 nM
B4,Kd,[4],~1 nM
B5,Kd,[1],~1 nM
B6,Kd,[1],~1 nM
B7,Kd,[1],~1 nM
B8,Kd,[5],~0.1 nM
B9,Kd,[3],~10 nM
B10,Kd,[2],~0.1 nM
same,Kd,human FAP on cells,~0.1 nM
B11,Kd,[4],~1 nM
B12,Kd,[4],~1 nM
